A short description of this data set: protein stability index of a GFP-peptide fusion (GPS, HEK-293T) (PSI 1-6); higher = more stable.
Where [1] appears, read: treatment: DMSO, c terminus: a fixed tail appended.
Where [2] appears, read: treatment: MLN4924 1 uM, 8 h, c terminus: a fixed tail appended.

Consider 72 sequences from the supplement of paper PMC10567573.

± gives the standard deviation.
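Further: 24-mer peptide tiles fused after GFP, lentivirally expressed, FACS-sorted into six equal bins by GFP/DsRed ratio, decoded by Illumina sequencing, PSI is the read-weighted mean bin number.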

RKRNPSRKKQHICDECGKHFSQGS [ZNF24]: the protein stability index stood at 3.91 ± 0.19 under setting [1] and 4.12 ± 0.097 under setting [2].

In turn, RKSLALDIVDEDVKLMMSTLPKSL [MYBL2] returned a protein stability index under setting [1] of 2.98 ± 0.27 and a protein stability index under setting [2] of 2.76 ± 0.29.

Sequence RLCGGKGGFGSMLRALGAQIEKTT [SDE2] came in with a protein stability index under setting [1] of 2.59 ± 0.23 and a protein stability index under setting [2] of 2.55 ± 0.45.

Consider RLIRELAEFEKLSDQVKISEEALR [SAT2], for which the protein stability index under setting [1] was 3.16 ± 0.35 and the protein stability index under setting [2] is 3.43 ± 0.3.

Consider RLKTRSWAGERSRRELCSRLQDQ [CDC25B], for which the protein stability index is 4.02 ± 0.17 (treatment: DMSO, c terminus: native) and 4.13 ± 0.15 (treatment: MLN4924 1 uM, 8 h, c terminus: native).

Regarding RLVELAGQSLLKDEALAIAALELL [PRAME], the protein stability index was found to be 2.17 ± 0.47 under setting [1] and 2.02 ± 0.44 under setting [2].

Take RMDFAAKLMKNIRFPLMTPQELIN [KLHL13]: the protein stability index runs as follows: under setting [1], 2.01 ± 0.31; under setting [2], 1.94 ± 0.27.

For RNARIVHLVEETRIHVLPSLNPDG [CPXM2], the protein stability index stood at 2.97 ± 0.037 under setting [1] and 3.2 ± 0.24 under setting [2].

Regarding RNQYEALVETNRREVEQWFATQTE [KRT33B], the protein stability index is, setting by setting: under setting [1], 4.37 ± 0.28; under setting [2], 4.27 ± 0.48.

On to RNTLNQPCSGSVSLQPRRSIAFRL [GMCL1], for which the protein stability index by setting is: under setting [1], 2.41 ± 0.29; under setting [2], 2.36 ± 0.11.

For the sequence RPALAQQAQGARAGGSARRPDTGD [GMCL1], the protein stability index is, setting by setting: under setting [1], 5.28 ± 0.19; under setting [2], 5.33 ± 0.13.

As for RPAQAIGTQPRATKHKCRQLTKAS [SPACA9], the protein stability index is, setting by setting: under setting [1], 4.47 ± 0.16; under setting [2], 4.44 ± 0.34.

On to RPGVQDAALIEAIQDRLSNTLQTY [VDR], for which the protein stability index by setting is: under setting [1], 2.78 ± 0.3; under setting [2], 3.09 ± 0.28.

For RPNLETYYERVLKRKTFNKVLGHV [GDAP1], the protein stability index by setting is: under setting [1], 2.46 ± 0.092; under setting [2], 2.47 ± 0.32.

In the case of RPQPRGLLGWGYYLIMLPFRFTYY [FAF2], the protein stability index amounted to 3.86 ± 0.18 under setting [1] and 3.48 ± 0.077 under setting [2].

RQHHHQSSFPGSLPQETNLTLKVC: the protein stability index by setting is: under setting [1], 2.89 ± 0.48; under setting [2], 3.34 ± 0.56.

Take RQNLKLLVEETSCQQNMIQELIET [CEP70]: the protein stability index runs as follows: under setting [1], 3.42 ± 0.16; under setting [2], 3.43 ± 0.45.

Consider RQRLLADLLHNVSQNIAAETRAED [DFFB], for which the protein stability index reads like this: under setting [1], 4.1 ± 0.36; under setting [2], 4.09 ± 0.44.

As to RQVKHYRIFRLPNNWYYISPRLTF [SLA], the protein stability index was 2.43 ± 0.52 under setting [1] and 2.14 ± 0.069 under setting [2].

Take RRFIQSCPIIRIPNRFLRGHRPPP [KLHDC10]: the protein stability index by setting is: under setting [1], 2.67 ± 0.18; under setting [2], 2.73 ± 0.43.

In the case of RRSSSKCIHDHHCGSQLSSTKGSR [NETO1], the protein stability index runs as follows: under setting [1], 3.74 ± 0.33; under setting [2], 3.92 ± 0.36.

Turning to RRVRLELWDTSGQGRFCTIFRSYS [RAB40C], the protein stability index by setting is: under setting [1], 2.35 ± 0.5; under setting [2], 1.99 ± 0.29.

Consider RSEEAVQVLIKHSADVNARDKNWQ [ANKRD44], for which the protein stability index was 4.17 ± 0.22 under setting [1] and 4.44 ± 0.33 under setting [2].

With RSEFTLMAKRIGKDLSNTFAKLEK [STX5], the protein stability index runs as follows: under setting [1], 2.51 ± 0.33; under setting [2], 2.31 ± 0.33.

Turning to RSLANGPNAGEQPGQVAGADFESE [EID1], the protein stability index by setting is: under setting [1], 5.22 ± 0.24; under setting [2], 5.74 ± 0.18.

Consider RSLQDLARIAIRGTIKKIIHQETV [PCMTD2], for which the protein stability index reads like this: under setting [1], 2.39 ± 0.32; under setting [2], 2.52 ± 0.65.

In the case of RSTCVYVCALSALPAGPLPAPLLV [PLEKHN1], the protein stability index was 3.18 ± 1.1 under setting [1] and 2.88 ± 0.71 under setting [2].

For RTPLIKLSPKKTWEGFIGGFFSTV [CDS1], the protein stability index amounted to 2.03 ± 0.16 under setting [1] and 1.88 ± 0.37 under setting [2].

Sequence RTSRKFLACRLTPDMETKLLFMTS [INTS3] displayed a protein stability index under setting [1] of 2.49 ± 0.37 and a protein stability index under setting [2] of 2.33 ± 0.39.

As to RTVGFEEQASAFQEQEIDGKSLLL [SAMD13], the protein stability index was determined as 4.55 ± 0.2 under setting [1] and 4.85 ± 0.18 under setting [2].

With RVMKVEDREGPSSSKLVTKKAPQP [HDAC6], the protein stability index was 4.93 ± 0.26 under setting [1] and 5.14 ± 0.077 under setting [2].

For RVQVLKNEVRRGSPVLLGWVEQAY [TIAF1], the protein stability index amounted to 2.37 ± 0.18 under setting [1] and 2.21 ± 0.37 under setting [2].

In the case of RVRFGQQKRYQDWFQRQYLSTPDS [INTS3], the protein stability index is, setting by setting: under setting [1], 2.85 ± 0.23; under setting [2], 3.07 ± 0.14.

Regarding RVYLATDDPSLLKEAKTKYPNYEF [FUT8], the protein stability index runs as follows: under setting [1], 2.95 ± 0.36; under setting [2], 2.9 ± 0.28.

For the sequence RWDMADNEQVLTTEHEKKQKLETD [YJU2B], the protein stability index is 5.39 ± 0.32 under setting [1] and 5.37 ± 0.21 under setting [2].

For RYDPQTNEWRMVASMSKRRCGVGV [KLHL20], the protein stability index runs as follows: under setting [1], 2.71 ± 0.16; under setting [2], 2.75 ± 0.3.

On to RYVFEAVIRWIAHDTEIRKVHMKD [GAN], for which the protein stability index reads like this: under setting [1], 2.74 ± 0.84; under setting [2], 2.4 ± 0.65.

For the sequence SALAPSVFKQAKDKVSDGVTKSPE [MAP2], the protein stability index runs as follows: under setting [1], 5.44 ± 0.22; under setting [2], 5.44 ± 0.18.

Regarding SALEGRADTTTGSAAGPPLSEDDK [EHMT1], the protein stability index was 5.14 ± 0.83 under setting [1] and 5.38 ± 0.43 under setting [2].

Turning to SALQSLLQHLIGLSNLTHVLYPVP [PRAME], the protein stability index came out at 3.36 ± 0.28 under setting [1] and 3.2 ± 0.16 under setting [2].

In the case of SARIGQNCSIGPNVSLGPGVVVED [GMPPB], the protein stability index was determined as 4.49 ± 0.33 under setting [1] and 4.58 ± 0.23 under setting [2].

SARWLEVLRTYLELVLCVLVSIRN [FBXO33] showed a protein stability index under setting [1] of 2.33 ± 0.31 and a protein stability index under setting [2] of 2.16 ± 0.21.

Regarding SCMASLWTAPLVMRTTNLDNRCKL [CDC25A], the protein stability index by setting is: under setting [1], 2.33 ± 0.084; under setting [2], 2.43 ± 0.15.

On to SCRRKQEDDRDGLLAEREQEEAIA [TMEM106C], for which the protein stability index is, setting by setting: under setting [1], 5.45 ± 0.33; under setting [2], 5.42 ± 0.091.

As for SDDSDEDEPCAISGKWTFQRDSKR [DLC1], the protein stability index is, setting by setting: under setting [1], 5 ± 0.13; under setting [2], 4.83 ± 0.069.

For SDKIGSTIDDTISKFRRKDREDSP [CLINT1], the protein stability index under setting [1] came out at 5.1 ± 0.4 and the protein stability index under setting [2] came out at 5.21 ± 0.3.

SDQVKISEEALRADGFGDNPFYHC [SAT2] showed a protein stability index under setting [1] of 4.16 ± 0.28 and a protein stability index under setting [2] of 4.25 ± 0.24.

Turning to SDSEANGFAERRIDKFGFIVGSQG [TBC1D10A], the protein stability index reads like this: under setting [1], 4.14 ± 0.35; under setting [2], 4.07 ± 0.34.

On to SDSVIMTGSYNNFFRMFDRNTKRD [PPP2R2B], for which the protein stability index was 3.55 ± 0.18 under setting [1] and 3.63 ± 0.19 under setting [2].

With SDVICDFPFQAMVQFHRHHGQEGS [GMPPB], the protein stability index under setting [1] is 3.12 ± 0.32 and the protein stability index under setting [2] came to 3.19 ± 0.28.

SEEAPGGTELIQTPLASSTDHQTP [HDAC6]: the protein stability index was found to be 5.49 ± 0.4 under setting [1] and 5.51 ± 0.34 under setting [2].

Take SEIEMAKAQRDYELKKAAYDIEVN [FLOT1]: the protein stability index runs as follows: under setting [1], 4.89 ± 0.29; under setting [2], 5.02 ± 0.17.

Turning to SEMAEDLCKIGSERSLVLDRLASN [IKZF1], the protein stability index is 4.56 ± 0.38 under setting [1] and 4.73 ± 0.2 under setting [2].

Consider SFGGEWSAPDTMKRYSMYLTPKGG [TRIM29], for which the protein stability index was determined as 3.09 ± 0.51 under setting [1] and 3.09 ± 0.48 under setting [2].

Regarding SFLRDHSYATEADIISTVEFNHTG [PPP2R2B], the protein stability index under setting [1] was 3.65 ± 0.15 and the protein stability index under setting [2] came out at 3.58 ± 0.19.

In the case of SFQGCMAQLFMDHLFAGAEVILLV [OR4A15], the protein stability index by setting is: under setting [1], 3.28 ± 1.2; under setting [2], 3.18 ± 0.91.

As to SFVCWSRGFMEMNGRGELVESLKR [AUP1], the protein stability index under setting [1] was 2.36 ± 0.51 and the protein stability index under setting [2] worked out at 2.2 ± 0.27.

With SGLEKEVQRLTSRAARDYKIQNHG [FCHSD1], the protein stability index by setting is: under setting [1], 3.89 ± 0.16; under setting [2], 3.61 ± 0.38.

Consider SGSAVSTAPQQKPIGKISKNKKKK [SRPK2], for which the protein stability index is 4.77 ± 0.43 under setting [1] and 5.07 ± 0.2 under setting [2].

Consider SGSGSGPGCGSVPGSGSGPGPGSG [SPAG8], for which the protein stability index runs as follows: under setting [1], 5.08 ± 0.24; under setting [2], 5.12 ± 0.12.

Take SGTDAEETILNAFKMLDPDGKGKI [MYL5]: the protein stability index under setting [1] turned out to be 4.51 ± 0.18 and the protein stability index under setting [2] amounted to 4.31 ± 0.17.

On to SKIDHYVLEYRRTNFEGPPRLKED [FSD1], for which the protein stability index was found to be 3.52 ± 0.15 under setting [1] and 3.63 ± 0.087 under setting [2].

On to SKKTFQITKQGDGVDFLSWFLNAL [USP39], for which the protein stability index worked out at 2.35 ± 0.16 under setting [1] and 2.29 ± 0.24 under setting [2].

On to SLAETECRYATQLQQIQGLIGGLE [KRT15], for which the protein stability index by setting is: under setting [1], 2.83 ± 0.24; under setting [2], 2.91 ± 0.32.

Regarding SLCSLLESQSTSLRGSYNSLHDGS [LURAP1L], the protein stability index runs as follows: under setting [1], 2.8 ± 0.11; under setting [2], 2.87 ± 0.41.

Turning to SLELPKAIQDQLPRLQQLLKTLEE [FANCE], the protein stability index under setting [1] was 2.66 ± 0.32 and the protein stability index under setting [2] is 2.85 ± 0.24.

As for SLEPFRPQQAPQDDGSQDPEVLDR [PWWP2B], the protein stability index is, setting by setting: under setting [1], 5.51 ± 0.16; under setting [2], 5.53 ± 0.14.

SLFSYGLRESIASYLSLTSEDNTS [SLA]: the protein stability index runs as follows: under setting [1], 2.49 ± 0.19; under setting [2], 2.61 ± 0.22.

With SLGGIRACTLTVFPPEETTPSPSR [KLHL13], the protein stability index by setting is: under setting [1], 3.63 ± 0.21; under setting [2], 3.77 ± 0.17.

As to SLPASSYSQDPVYANGGLNYSYRG [NOL4L], the protein stability index reads like this: under setting [1], 3.44 ± 0.12; under setting [2], 3.62 ± 0.15.

In the case of SLRDKVLQLQKGSDTEAQCEVMQE [INTS3], the protein stability index runs as follows: under setting [1], 5.11 ± 0.23; under setting [2], 5.08 ± 0.2.

On to SLSLRLPHQPVTAITRVSDRFSGE [SMTNL2], for which the protein stability index reads like this: under setting [1], 3.8 ± 0.28; under setting [2], 4.16 ± 0.1.
